Measured values reported in publication PMC4867895.

Substrate: O=C(O)CO
Experiment: purified protein
Settings: co-substrate O2; recombinant His-tagged enzyme

B1: CmGOX (Cyanidioschyzon merolae strain 10D) (protein)
chain: MVEKPAVNPATQPLNLAEYHLFAKARLPAMVYGYYASGADDEQTLRDNEEAFRRLRFRPRVLIDVSRVDITKQVMGIDLSFPLMVAPTAMQRMAHPEGELATARAVARIGTVMGLSSWATTSLEDVAAHVPGLPKFFQLYVYKDRAITERLVRRAERAGFRAIALTVDTPQLGRREADIRNQFQLPPHLSLANFADMKDFAQVKGGAGASGLASYVASLIDASLNWNDIAWLKSITRLPILLKGVVTAEDAQRALQYGADGIWISNHGARQLDGVTATIDCLEEVAQSVRGRIPVFIDSGVRRGTDVVKALALGADAVLIGRPIVWGLAVDGEEGVYRLLSLLKDEFKLAMQLCGCQKVSDIRRDLVVRDAFAPYDVRQMLSVKMQSKL
Protein B1 has a Km of 900 ± 200 µM.
